The numbers were not newly measured in patent US20240158457A1, “INTERLEUKIN-18 RECEPTOR BINDING POLYPEPTIDES AND USES THEREOF” (Medikine, Inc., priority 2022, published 2024), which cites them from elsewhere.

The target in this series is T1, IL-18 (Homo sapiens, UniProt Q14116).
T1 sequence (Q14116 37-193): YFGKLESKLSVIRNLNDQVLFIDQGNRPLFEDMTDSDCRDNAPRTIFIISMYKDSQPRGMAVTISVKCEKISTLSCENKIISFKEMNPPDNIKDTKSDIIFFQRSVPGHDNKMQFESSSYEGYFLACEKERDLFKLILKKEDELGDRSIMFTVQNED
The following applies: background; read-out: affinity for IL-18.

B1: IL-18BP: IL-18 binding protein, decoy receptor; IL-18BP Fc fusion (Acro #ILP-H5253) (protein)
chain: TPVSQTTTAATASVRSTKDPCPSQPPVFPAAKQCPALEVTWPEVEVPLNGTLSLSCVACSRFPNFSILYWLGNGSFIEHLPGRLWEGSTSRERGSTGTQLCKALVLEQLTPALHSTNFSCVLVDPEQVVQRHVVLAQLWAGLRATLPPTQEALPSSHSSPQQQG
modifications: left off: a dimerising Fc or GST
On to B1, for which the Kd was approximately 0.4 nM.
